Results published in publication PMC7591920, “A protein tertiary structure mimetic modulator of the Hippo signalling pathway” (Nature Communications, 2020).

T1: mouse TEAD4(210–427), as purified (SPR) (mouse), Q62296
T1 chain: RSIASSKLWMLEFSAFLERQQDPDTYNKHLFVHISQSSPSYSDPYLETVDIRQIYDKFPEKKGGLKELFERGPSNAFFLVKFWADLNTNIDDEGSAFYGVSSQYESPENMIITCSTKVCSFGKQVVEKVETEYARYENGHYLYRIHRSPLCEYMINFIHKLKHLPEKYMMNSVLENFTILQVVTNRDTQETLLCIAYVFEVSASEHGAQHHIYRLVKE


Legend:
Test in all cases: SPR; GST-hTEAD1 and mTEAD4 covalently tethered (NHS/EDC) on CM5 chips, 2000–3000 RU; peptides as analytes, threefold dilutions, typically 30 µM top concentration; 10 mM HEPES, 150 mM NaCl, 0.05% Tween-20, pH 7.4, 0.3% DMSO, 20 °C; steady-state fit, 1:1 model
[1] = target: GST-hTEAD1(209–426) (human), P28347
[2] = target: T1, mouse TEAD4(210–427), as purified (SPR) …
[3] = target: GST-hTEAD1(209–426) (human) (UniProt P28347)

| Binder | Kd [1] | Kd [2] | Kd [3] |
| --- | --- | --- | --- |
| SVDDHFAKALG (modifications not checked) [isolated helix peptide 5 derived from the VGL4 two-helix motif 4, Q80V24 203-256] | > 100 µM | > 100 µM |  |
| DTWLQIKAA (modifications not checked) [isolated helix peptide 6 derived from the VGL4 two-helix motif 4, Q80V24 203-256] | > 100 µM | > 100 µM |  |
| VGL4(203–256), full-length VGL4-derived TEAD binding sequence (peptide 1) (peptide) peptide: DPVVEEHFRRSLGKNYKEPEPAPNSVSITGSVDDHFAKALGDTWLQIKAAKDSA |  |  | 1.4 µM |
| KEPEPAPNSVSITG (modifications not checked) [VGL4 intervening extended stretch peptide (peptide 3), Q80V24 203-256] | > 100 µM | > 100 µM |  |
| DPVVEEHFRRSLGKNY (modifications not checked) [VGL4 N-terminal α-helix peptide (peptide 2, helix α1), Q80V24 203-256] | 19.4 µM | 21.8 µM |  |
| SVDDHFAKALGDTWLQIKAA (modifications not checked) [VGL4 C-terminal two-helix motif peptide (peptide 4, helices α2/α3), Q80V24 203-256] | 4.3 µM | 3.1 µM |  |
